Experimental data as given in article PMC10786891, “Massively parallel profiling of RNA-targeting CRISPR-Cas13d”.

T1: EsCas13d, nuclease-dead (Eubacterium siraeum, UniProt B0MS50, R295A;H300A;R849A;H854A)
T1 sequence: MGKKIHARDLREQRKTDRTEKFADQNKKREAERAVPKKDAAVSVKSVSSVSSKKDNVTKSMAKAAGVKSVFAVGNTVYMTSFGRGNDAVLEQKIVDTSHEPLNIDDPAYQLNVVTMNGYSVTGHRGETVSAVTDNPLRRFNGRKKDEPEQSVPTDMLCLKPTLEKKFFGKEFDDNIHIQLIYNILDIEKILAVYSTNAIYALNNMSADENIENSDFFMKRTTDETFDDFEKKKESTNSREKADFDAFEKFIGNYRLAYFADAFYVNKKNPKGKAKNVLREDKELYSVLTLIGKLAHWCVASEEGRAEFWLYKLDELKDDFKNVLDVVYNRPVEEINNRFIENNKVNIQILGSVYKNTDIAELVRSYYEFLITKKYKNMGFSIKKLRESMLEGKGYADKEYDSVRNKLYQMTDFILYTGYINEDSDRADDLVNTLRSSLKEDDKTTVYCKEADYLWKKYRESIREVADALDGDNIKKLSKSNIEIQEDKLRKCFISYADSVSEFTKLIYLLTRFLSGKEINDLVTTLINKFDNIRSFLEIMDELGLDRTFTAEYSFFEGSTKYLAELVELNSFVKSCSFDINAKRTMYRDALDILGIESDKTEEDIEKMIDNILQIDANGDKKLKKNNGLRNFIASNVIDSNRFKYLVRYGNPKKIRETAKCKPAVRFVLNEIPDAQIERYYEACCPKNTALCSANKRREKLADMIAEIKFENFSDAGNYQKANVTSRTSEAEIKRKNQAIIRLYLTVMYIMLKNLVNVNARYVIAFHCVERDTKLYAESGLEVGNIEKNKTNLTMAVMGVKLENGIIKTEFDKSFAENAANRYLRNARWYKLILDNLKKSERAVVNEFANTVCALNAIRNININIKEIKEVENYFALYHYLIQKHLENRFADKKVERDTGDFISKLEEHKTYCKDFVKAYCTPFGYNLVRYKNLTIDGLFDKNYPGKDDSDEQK


The binders below were run against T1, EsCas13d, nuclease-dead (assay: crRNA (strand 1, pre-loaded); Mg2+; 40 mM Tris-HCl pH 7.5, 150 mM NaCl, 6 mM MgCl2, 1 mM DTT, 0.1% Tween-20, 0.2 mg/ml BSA; 25 C; 10 min per concentration, then washed). Conditions: tags: His6-TwinStrep-SUMO cleaved; N-terminal SNAP kept (SNAP-Surface 488); label: 3' end held by stalled T7 RNA polymerase.

Row | Binder | Kd [nM]
1 | target 3 insA 3' of 15,insG 3' of 2 (mixed) RNA 1: CACCCGUGCAAAAUUGCAGGGGUCUAAAACGACCUGAAUAUUUCAGAUCAAA RNA 2: GGGAAUGGAUCCACAUCUACGAAUUCGUUUUUGAUCUAGAAAUAUUCAGGUGCUGCAGAUCGGAAGAGCACACGU | 68.5 ± 21.5
2 | target 3 C6A,U8A (mixed) RNA 1: CACCCGUGCAAAAUUGCAGGGGUCUAAAACGACCUGAAUAUUUCAGAUCAAA RNA 2: GGGAAUGGAUCCACAUCUACGAAUUCGUUUUUGAUCUGAAAUAAUAAGGUCUGCAGAUCGGAAGAGCACACGU | 59 ± 8.5
3 | target 3 A18G,U20A (mixed) RNA 1: CACCCGUGCAAAAUUGCAGGGGUCUAAAACGACCUGAAUAUUUCAGAUCAAA RNA 2: GGGAAUGGAUCCACAUCUACGAAUUCGUUUUAGGUCUGAAAUAUUCAGGUCUGCAGAUCGGAAGAGCACACGU | 83.5 ± 36.5
4 | target 3 insG 3' of 2 (mixed) RNA 1: CACCCGUGCAAAAUUGCAGGGGUCUAAAACGACCUGAAUAUUUCAGAUCAAA RNA 2: GGGAAUGGAUCCACAUCUACGAAUUCGUUUUUGAUCUGAAAUAUUCAGGUGCUGCAGAUCGGAAGAGCACACGU | 37.1 ± 3.7
5 | target 3 insU 3' of 4,insA 3' of 3 (mixed) RNA 1: CACCCGUGCAAAAUUGCAGGGGUCUAAAACGACCUGAAUAUUUCAGAUCAAA RNA 2: GGGAAUGGAUCCACAUCUACGAAUUCGUUUUUGAUCUGAAAUAUUCAGUGAUCUGCAGAUCGGAAGAGCACACGU | 17.8 ± 2.45
6 | target 3 A18G,U22A (mixed) RNA 1: CACCCGUGCAAAAUUGCAGGGGUCUAAAACGACCUGAAUAUUUCAGAUCAAA RNA 2: GGGAAUGGAUCCACAUCUACGAAUUCGUUAUUGGUCUGAAAUAUUCAGGUCUGCAGAUCGGAAGAGCACACGU | 14.8 ± 1.75
7 | target 3 insU 3' of 3,insG 3' of 2 (mixed) RNA 1: CACCCGUGCAAAAUUGCAGGGGUCUAAAACGACCUGAAUAUUUCAGAUCAAA RNA 2: GGGAAUGGAUCCACAUCUACGAAUUCGUUUUUGAUCUGAAAUAUUCAGGUUGCUGCAGAUCGGAAGAGCACACGU | 27 ± 4.5
8 | target 3 complement block 3-6 (mixed) RNA 1: CACCCGUGCAAAAUUGCAGGGGUCUAAAACGACCUGAAUAUUUCAGAUCAAA RNA 2: GGGAAUGGAUCCACAUCUACGAAUUCGUUUUUGAUCUGAAAUAUUGUCCUCUGCAGAUCGGAAGAGCACACGU | 57 ± 6
9 | target 3 insA 3' of 7,insA 3' of 6 (mixed) RNA 1: CACCCGUGCAAAAUUGCAGGGGUCUAAAACGACCUGAAUAUUUCAGAUCAAA RNA 2: GGGAAUGGAUCCACAUCUACGAAUUCGUUUUUGAUCUGAAAUAUUACAAGGUCUGCAGAUCGGAAGAGCACACGU | 23.7 ± 2.65
10 | target 3 U2G,A5U (mixed) RNA 1: CACCCGUGCAAAAUUGCAGGGGUCUAAAACGACCUGAAUAUUUCAGAUCAAA RNA 2: GGGAAUGGAUCCACAUCUACGAAUUCGUUUUUGAUCUGAAAUAUUCUGGGCUGCAGAUCGGAAGAGCACACGU | 9.2 ± 1.2
11 | target 3 insU 3' of 22,insC 3' of 8 (mixed) RNA 1: CACCCGUGCAAAAUUGCAGGGGUCUAAAACGACCUGAAUAUUUCAGAUCAAA RNA 2: GGGAAUGGAUCCACAUCUACGAAUUCGUUUUUUGAUCUGAAAUAUCUCAGGUCUGCAGAUCGGAAGAGCACACGU | 106 ± 32
12 | target 3 G4U,U21G (mixed) RNA 1: CACCCGUGCAAAAUUGCAGGGGUCUAAAACGACCUGAAUAUUUCAGAUCAAA RNA 2: GGGAAUGGAUCCACAUCUACGAAUUCGUUUGUGAUCUGAAAUAUUCAUGUCUGCAGAUCGGAAGAGCACACGU | 65 ± 14
13 | target 3 A5U,U7A (mixed) RNA 1: CACCCGUGCAAAAUUGCAGGGGUCUAAAACGACCUGAAUAUUUCAGAUCAAA RNA 2: GGGAAUGGAUCCACAUCUACGAAUUCGUUUUUGAUCUGAAAUAUACUGGUCUGCAGAUCGGAAGAGCACACGU | 62.4 ± 5.4
14 | target 3 C6A,A11G (mixed) RNA 1: CACCCGUGCAAAAUUGCAGGGGUCUAAAACGACCUGAAUAUUUCAGAUCAAA RNA 2: GGGAAUGGAUCCACAUCUACGAAUUCGUUUUUGAUCUGAAGUAUUAAGGUCUGCAGAUCGGAAGAGCACACGU | 98 ± 23
15 | target 3 insU 3' of 19 (mixed) RNA 1: CACCCGUGCAAAAUUGCAGGGGUCUAAAACGACCUGAAUAUUUCAGAUCAAA RNA 2: GGGAAUGGAUCCACAUCUACGAAUUCGUUUUUGUAUCUGAAAUAUUCAGGUCUGCAGAUCGGAAGAGCACACGU | 78 ± 29.5
16 | target 3 insA 3' of 16,insA 3' of 2 (mixed) RNA 1: CACCCGUGCAAAAUUGCAGGGGUCUAAAACGACCUGAAUAUUUCAGAUCAAA RNA 2: GGGAAUGGAUCCACAUCUACGAAUUCGUUUUUGAUCAUGAAAUAUUCAGGUACUGCAGAUCGGAAGAGCACACGU | 84.5 ± 25.5
17 | target 3 C1G,C6G (mixed) RNA 1: CACCCGUGCAAAAUUGCAGGGGUCUAAAACGACCUGAAUAUUUCAGAUCAAA RNA 2: GGGAAUGGAUCCACAUCUACGAAUUCGUUUUUGAUCUGAAAUAUUGAGGUGUGCAGAUCGGAAGAGCACACGU | 18.7 ± 3.15
18 | target 3 G3U,G4A (mixed) RNA 1: CACCCGUGCAAAAUUGCAGGGGUCUAAAACGACCUGAAUAUUUCAGAUCAAA RNA 2: GGGAAUGGAUCCACAUCUACGAAUUCGUUUUUGAUCUGAAAUAUUCAAUUCUGCAGAUCGGAAGAGCACACGU | 7.75 ± 1.05
19 | target 3 U2G,A18G (mixed) RNA 1: CACCCGUGCAAAAUUGCAGGGGUCUAAAACGACCUGAAUAUUUCAGAUCAAA RNA 2: GGGAAUGGAUCCACAUCUACGAAUUCGUUUUUGGUCUGAAAUAUUCAGGGCUGCAGAUCGGAAGAGCACACGU | 59.5 ± 7.5
20 | target 3 insC 3' of 7,insC 3' of 2 (mixed) RNA 1: CACCCGUGCAAAAUUGCAGGGGUCUAAAACGACCUGAAUAUUUCAGAUCAAA RNA 2: GGGAAUGGAUCCACAUCUACGAAUUCGUUUUUGAUCUGAAAUAUUCCAGGUCCUGCAGAUCGGAAGAGCACACGU | ~120
21 | target 3 insU 3' of 6,insA 3' of 4 (mixed) RNA 1: CACCCGUGCAAAAUUGCAGGGGUCUAAAACGACCUGAAUAUUUCAGAUCAAA RNA 2: GGGAAUGGAUCCACAUCUACGAAUUCGUUUUUGAUCUGAAAUAUUCUAGAGUCUGCAGAUCGGAAGAGCACACGU | 19.4 ± 3.6
22 | target 3 G4C,A5C (mixed) RNA 1: CACCCGUGCAAAAUUGCAGGGGUCUAAAACGACCUGAAUAUUUCAGAUCAAA RNA 2: GGGAAUGGAUCCACAUCUACGAAUUCGUUUUUGAUCUGAAAUAUUCCCGUCUGCAGAUCGGAAGAGCACACGU | 130 ± 40
23 | target 3 U7A,A9G (mixed) RNA 1: CACCCGUGCAAAAUUGCAGGGGUCUAAAACGACCUGAAUAUUUCAGAUCAAA RNA 2: GGGAAUGGAUCCACAUCUACGAAUUCGUUUUUGAUCUGAAAUGUACAGGUCUGCAGAUCGGAAGAGCACACGU | 97 ± 17.5
24 | target 3 insU 3' of 22,insU 3' of 11 (mixed) RNA 1: CACCCGUGCAAAAUUGCAGGGGUCUAAAACGACCUGAAUAUUUCAGAUCAAA RNA 2: GGGAAUGGAUCCACAUCUACGAAUUCGUUUUUUGAUCUGAAAUUAUUCAGGUCUGCAGAUCGGAAGAGCACACGU | 62 ± 19.5
25 | target 3 insA 3' of 21,insC 3' of 20 (mixed) RNA 1: CACCCGUGCAAAAUUGCAGGGGUCUAAAACGACCUGAAUAUUUCAGAUCAAA RNA 2: GGGAAUGGAUCCACAUCUACGAAUUCGUUUUAUCGAUCUGAAAUAUUCAGGUCUGCAGAUCGGAAGAGCACACGU | 73.5 ± 20.5
26 | target 1 insU 3' of 21,insC 3' of 1 (mixed) RNA 1: CACCCGUGCAAAAAUGCAGGGGUCUAAAACUGAGCGGAUAACCUCUCUAUGG RNA 2: GGGAAUGGAUCCACAUCUACGAAUUCGUACCUAUAGAGAGGUUAUCCGCUCACCCGAGAUCGGAAGAGCACACGU | 20.5 ± 0.8
27 | target 1 insU 3' of 21,insA 3' of 2 (mixed) RNA 1: CACCCGUGCAAAAAUGCAGGGGUCUAAAACUGAGCGGAUAACCUCUCUAUGG RNA 2: GGGAAUGGAUCCACAUCUACGAAUUCGUACCUAUAGAGAGGUUAUCCGCUCAACCGAGAUCGGAAGAGCACACGU | 26.8 ± 2.8
28 | target 1 U10C,U19C (mixed) RNA 1: CACCCGUGCAAAAAUGCAGGGGUCUAAAACUGAGCGGAUAACCUCUCUAUGG RNA 2: GGGAAUGGAUCCACAUCUACGAAUUCGUACCACAGAGAGGUCAUCCGCUCACCGAGAUCGGAAGAGCACACGU | 70 ± 12
